Source: patent publication US20100249383A1, “Novel Ligand Involved In The Transmigration Of Leukocytes Across the Endothelium and Uses Therefor” (The Regents of The University of California and The Burnham …, priority 2001, published 2010)
Where “and” joins values, the source holds several entries; their conditions need not be identical. Equal values may be shown once.

Assays:
HUVECs = experiment: Surface binding of iodinated S100A8/A9 to endothelial cells; design: species or system human
Protocol: Human umbilical vein endothelial cells (HUVECs) were grown in Endothelial Cell growth Medium (Cell Applications) at 37° C. in 5% CO2. Cell staining and Western blotting were performed to confirm expression of mAbGB3.1 antigens. HUVECS at passages 3-4 were used in the binding assays. Purified proteins were radioiodinated using Na^125I and Iodo-Beads Iodinating Reagent as per the manufacturer's protocols. Unbound label was removed on a Sephadex G25 column, followed by concentration of the void volume fractions using Centricon10 concentrators.
Cells grown to confluence in 12 well plates and activated with 1 μM PAF for 4 hr. Activated and unactivated cells were washed with cold HBSS and then incubated with 4 nM to 80 nM ^125I-S100A8/A9 in 1 ml of HBSS, or 20 nM labeled complex in the absence and presence of modulators at 4° C. for 2 h. The reaction was stopped by rapid removal of unbound label, and the cells were washed thrice with cold HBSS. They were solubilized in 1 M NaOH followed by addition of an equal volume of 1 M HCl, and the radioactivity associated with the lysates was measured using a gamma counter. […] Panels 2 and 3 show the results for HUVECs incubated with 20 nM labeled complex in the absence or presence of modulators, in 1 ml of HBSS at 4° C. for 2 hours.

[1] = system: 0.3 M asialo-COO^− glycopeptide-BSA neoglycoproteins; experiment: ELISA binding of purified proteins to immobilized carboxylated bovine lung glycans; details: FIG. 19 or data not shown
Protocol: In additional ELISA experiments, 96-well plates were coated with 0.3 M asialo-COO^− glycopeptide-BSA neoglycoproteins (250 ng/well) for 4 h at 37° C. (control wells had BSA alone) and blocked with 3% BSA in PBS overnight. The wells were then incubated with purified human annexin I or S100A8/A9 complexes (as appropriate), in 10 mM HUES buffer pH 7.5 containing 150 mM NaCl, 5 mM KCl, 1.2 mM MgCl2 and 1.3 mM CaCl2, in the absence or presence of varying concentrations of 0.3 M asialo-COO^− glycopeptides or 0.3 M asialo-CONHMe-glycopeptides for 2 h at room temperature. This was followed by incubation with anti-bovine annexin I antibody or anti-human S100A8 or anti-S100A9 for 2 h at room temperature. Wells were then washed and incubated with alkaline phosphatase conjugated goat anti-mouse IgG, followed by development with p-nitrophenyl phosphate substrate.
In this Example, experiments conducted to assess amphoterin binding to COO^− glycopeptide coated plates was assayed as described earlier for annexin I and S100 proteins. In addition, bound protein was detected using anti-amphoterin. mAbGB3.1 binding to sRAGE was assessed by first coating sRAGE on microtiter wells for 4 h at 37° C. After blocking with 3% BSA in PBS overnight, wells were incubated with mAbGB3.1 in the presence and absence of COO^−or CONHMe-glycopeptide and developed as described above.

[2] = system: [2-^3H]mannose-labeled CPAE glycoproteins; experiment: Precipitation of mannose-labeled glycoproteins and cross-binding; design: species or system bovine
Protocol: Calf pulmonary artery endothelial cells (CPAE) cells were labeled with [2-^3H] mannose at 20 μCi/ml for 24 h in alpha MEM containing 10% fetal bovine serum. Cells were harvested by trypsinization, washed thrice in PBS, and lysed in PBS containing protease inhibitors and 0.5% NP40. Protein-rich lysates were prepared by ultrafiltration on YM10 membranes. Purified S100A8/A9 or annexin I proteins were immobilized on Affigel-10, and mixed with the labeled glycoproteins from CPAE cells in 10 mM HEPES buffer pH 7.5 containing 150 mM NaCl, 5 mM KCl, 1.2 mM MgCl2 and 1.3 mM CaCl2 after preclearing the lysates with BSA-Affigel 10. For immunoprecipitations using mAbGB3.1, lysates were precleared with normal mouse IgG-protein G beads and then incubated with Protein G coupled to mAbGB3.1 IgG in PBS. After overnight incubation at 4° C., the individual pellets were washed free of all unbound label until no more counts appeared in the washes, and the radioactivity associated with the pellets was measured.
For cross-binding, label associated with each pellet was first eluted using high salt (5 M MgCl2, which eluted >70% bound label). The eluates were repeatedly desalted on YM10 membranes and resuspended in the respective buffers. Label eluted from mAbGB3.1 gels was mixed with immobilized S100A8/A9 or annexin I and vice versa. Again, after overnight incubation at 4° C., the individual pellets were washed free of all unbound label and counted. […] In comparison, immobilized annexin I precipitated only about 2-3% of mannose labeled glycoproteins from endothelial cells (data not shown).

[3] = target: [2-3H]mannose-labeled CPAE glycoproteins; experiment: precipitation of [2-3H]mannose-labeled CPAE glycoproteins by annexin I on Affigel-10 (data not shown)
RAGE = target: T1, RAGE (Bos taurus, UniProt Q28173); experiment: Binding assays using ^125I amphoterin on immobilized RAGE; design: species or system bovine
T1 construct: from tissue; host or cells: bovine lung (inferred); amphoterin from baculovirus-infected insect cells
T1 sequence (Q28173 23-416): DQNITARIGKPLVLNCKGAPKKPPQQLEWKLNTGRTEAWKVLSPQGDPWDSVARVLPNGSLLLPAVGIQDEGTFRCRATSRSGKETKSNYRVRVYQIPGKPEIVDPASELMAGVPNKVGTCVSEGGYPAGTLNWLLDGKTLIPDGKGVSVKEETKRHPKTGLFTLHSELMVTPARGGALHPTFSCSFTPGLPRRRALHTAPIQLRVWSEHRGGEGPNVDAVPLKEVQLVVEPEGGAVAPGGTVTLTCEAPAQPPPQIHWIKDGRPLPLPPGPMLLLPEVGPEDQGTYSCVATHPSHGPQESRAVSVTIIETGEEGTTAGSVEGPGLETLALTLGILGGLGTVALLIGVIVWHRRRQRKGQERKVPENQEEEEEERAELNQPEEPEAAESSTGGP
Protocol: Amphoterin was radioiodinated using Na ^125I and Iodo-Beads Iodinating Reagent (Pierce) to a specific activity of 5×10^3 cpm/ng protein. Saturation binding experiments were done by a slight modification of the method of Hori et al (Hori at al., J. Biol. Chem., 270:25752-61 [1995]). Briefly, purified RAGE was immobilized on microliter wells and the wells blocked with 3% BSA. Wells were incubated at 4° C. overnight with increasing concentrations of ^125I amphoterin in HBSS containing 0.1% BSA in the presence or absence of desialylated carboxylate-enriched (COO^−) or CONHMe bovine lung glycopeptides, or 20 μg/ml mAbGB3.1 or an unrelated anti-carbohydrate monoclonal antibody, or 100 fold excess of unlabeled amphoterin. Binding was also tested on RAGE deglycosylated by PNGase F under non-denaturing conditions. Wells were washed, bound amphoterin was eluted with 2 M NaCl, and radioactivity was measured using a gamma counter. Non-linear regression analysis was done using the GraphPad Prism program.

[4] = target: [2-3H]mannose-labeled CPAE glycoproteins; experiment: precipitation of [2-3H]mannose-labeled CPAE glycoproteins by S100A8/A9 on Affigel-10 (20,386 cpm added)
[5] = target: cell surface binding sites on human umbilical vein endothelial cells (HUVECs); experiment: binding of 125I-S100A8/A9 to unactivated HUVECs (data not shown)
[6] = target: [2-3H]mannose-labeled CPAE glycoproteins; experiment: precipitation of [2-3H]mannose-labeled CPAE glycoproteins by S100A8/A9 on Affigel-10 (10,286 cpm added)
[7] = target: cell surface binding sites on human umbilical vein endothelial cells (HUVECs); experiment: competition of 20 nM 125I-S100A8/A9 on PAF-activated HUVECs by unlabeled S100A8/A9
[8] = target: [2-3H]mannose-labeled CPAE glycoproteins eluted from mAbGB3.1; experiment: rebinding to immobilized S100A8/A9 of label eluted from mAbGB3.1 (1,961 cpm added)
[9] = target: [2-3H]mannose-labeled CPAE glycoproteins eluted from mAbGB3.1; experiment: rebinding to immobilized S100A8/A9 of label eluted from mAbGB3.1 (4,951 cpm added)

## ^125I-S100A8/A9: purified S100A8/A9 radioiodinated using Na^125I
HUVECs; 4 nM to 80 nM, 4° C. 2 h, FIG. 20 Panel A
  binding on PAF-activated HUVECs: dose-dependent and saturable binding
HUVECs; data not shown
  binding to unactivated cells, less than to PAF-activated cells: 2 fold

## S100A8/A9: heteromeric S100A8/S100A9 complex purified from human neutrophil cytosol
HUVECs; unlabeled ligand, 20 nM labeled complex, PAF-activated HUVECs, FIG. 20 Panel B, read-out: half maximal competition of specific binding of ^125I-S100A8/A9
  IC50: ~500 nM
[1]
  binding to immobilized carboxylated vs neutralized glycans: same specificity of binding
[2]; primary binding
  % Bound Radioactivity (mean ± SD): 9% and 8.7 ± 0.5%
[2]; primary binding to mAbGB3.1, eluted label rebinding to S100A8/A9
  % Bound Radioactivity (mean ± SD): 31.5 ± 0.2%
[2]; primary binding to mAbGB3.1, eluted label rebinding to S100A8/A9, listed as S100A8/A9 complex
  % Bound Radioactivity (mean ± SD): about one-third
[2]; primary binding, listed as S100A8/A9 complex
  % Bound Radioactivity (mean ± SD): 9%

B1: recombinant full-length human annexin I (E. coli BL21(DE3), pET23b) (protein)
chain: MAMVSEFLKQAWFIENEEQEYVQTVKSSKGGPGSAVSPYPTFNPSSDVAALHKAIMVKGVDEATIIDILTKRNNAQRQQIKAAYLQETGKPLDETLKKALTGHLEEVVLALLKTPAQFDADELRAAMKGLGTDEDTLIEILASRTNKEIRDINRVYREELKRDLAKDITSDTSGDFRNALLSLAKGDRSEDFGVNEDLADSDARALYEAGERRKGTDVNVFNTILTTRSYPQLRRVFQKYTKYSKHDMNKVLDLELKGDIEKCLTAIVKCATSKPAFFAEKLHQAMKGVGTRHKALIRIMVSRSEIDMNDIKAFYQKMYGISLCQAILDETKGDYEKILVALCGGN
[3]
  % of mannose labeled glycoproteins precipitated: 2 to 3%

B2: amphoterin: baculovirus expressed rat amphoterin, neurite growth-promoting protein, ligand of RAGE (protein)
chain: GKGDPKKPRGKMSSYAFFVQTCREEHKKKHPDASVNFSEFSKKCSERWKTMSAKEKGKFEDMAKADKARYEREMKTYIPPKGETKKKFKDPNAPKRPPSAFFLFCSEYRPKIKGEHPGLSIGDVAKKLGEMWNNTAADDKQPYEKKAAKLKEKYEKDIAAYRAKGKPDAAKKGVVKAEKSKKKKEEEDDEEDEEDEEEEEEEEDEDEEEDDDDE
[1]
  binding to immobilized carboxylated vs neutralized glycans: carboxylate dependent manner
RAGE; in presence of soluble COO^− glycopeptides
  Bmax: approximately 34.7±3.7 fmole/well
RAGE; native purified RAGE
  Bmax: approximately 52.7±4.3 fmole/well

B3: purified human S100A8/A9 complex from peripheral blood neutrophils (ligand)
chain 1: MLTELEKALNSIIDVYHKYSLIKGNFHAVYRDDLKKLLETECPQYIRKKGADVWFKELDINTDGAVNFQEFLILVIKMGVAAHKKSHEESHKE
chain 2: TCKMSQLERNIETIINTFHQYSVKLGHPDTLNQGEFKELVRKDLQNFLKKENKNEKVIEHIMEDLDTNADKQLSFEEFIMLMARLTWASHEKMHEGDEGPGHHHKPGLGEGTP
[4]
  cpm bound to gel: 1700 cpm
[5]
  fold less binding to unactivated than to PAF-activated cells: 2 fold
[6]
  cpm bound to gel: 928 cpm
[7]
  IC50: 500 nM
[8]
  cpm bound to gel: 615 cpm
[9]
  cpm bound to gel: 1570 cpm
